# Assay results: US20050222039A1, “Animal treatment” (priority 2001, published 2005)
# Where a chain is given by its changes, count along the chain named.
# B1: prolactin: ovine prolactin pituitary extract; peptide hormone of approximately 200 amino acids, given by infusion, injection or osmotic pump (protein, UniProt P01240 31-229, looked up)
# Prolactin: TPVCPNGPGNCQVSLRDLFDRAVMVSHYIHNLSSEMFNEFDKRYAQGKGFITMALNSCHTSSLPTPEDKEQAQQTHHEVLMSLILGLLRSWNDPLYHLVTEVRGMKGVPDAILSRAIEIEEENKRLLEGMEMIFGQVIPGAKETEPYPVWSGLPSLQTKDEDARHSAFYNLLHCLRRDSSKIDTYLKLLNCRIIYNNNC
# modifications: pituitary extract
# B2: bovine prolactin: exogenous bovine prolactin infused in cows (literature) (protein, UniProt P01239 31-229, looked up)
# Prolactin: B1 Prolactin with N31D, V108A, H165Y
# Columns and labels:
# Romney ewes [1] = test: Trial 2: bromocriptine treatment of winter-lambing Romney ewes (plasma prolactin, wool growth, lambs); type: in vivo, sheep; details: bromocriptine given to pregnant ewes before or after parturition
# Protocol: Natural and experimental changes in plasma prolactin concentration and their effects on wool production in winter-lambing Romney ewes were measured.
# Fourteen non-pregnant and 29 pregnant ewes were maintained indoors from early April 1995 for 12 months under controlled photoperiod and controlled dietary intake. Two groups (n=8) were held under long day photoperiod (16L:8D; LD non-pregnant and LD-lambed) while 2 others were exposed to natural photoperiod (ND non-pregnant, n=6 and ND-lambed, n=7). Two further groups (n=7) of pregnant ewes housed in natural days were treated with bromocriptine, either from 1 week before parturition (ND-BrB) or 1-3 days after parturition (ND-BrA), to suppress prolactin secretion.
# Lambing occurred between 12 and 18 June. Plasma prolactin, mean fibre diameter and wool growth were measured at regular intervals and the results were plotted in FIG. 3.
# sheep = sheep held in darkness, infusion of prolactin; cited from earlier work
# Romney ewes [2] = type: in vivo, sheep
# From the text: The effects of two methods of administration of exogenous prolactin on wool growth were examined.
# Forty-three mixed age Romney ewes were maintained indoors in individual pens from April until October, and fed to maintain a constant maternal live weight (independent of conceptus and fleece weights). A control group (ND non-pregnant) was not mated (n=8). Thirty-five other ewes (comprising Groups 2-5) were mated in April. Groups 1-4 were maintained in natural photoperiod while Group 5 (LD-lambed, n=10) was subjected to long days (16L:8D) from 1 week after mating for the duration of the trial (ie 18 days).
# An ovine prolactin pituitary extract (0.80 mg/kg/day) was administered by either daily subcutaneous injection to sheep of Group 3 (PRL-INJ, n=10) or by intravenous infusion via a jugular cannula to sheep of Group 4 (PRL-INF, n=2) (from one week after mating for a temporary period of 18 days).
# (§1) The sheep were shorn on entry to the experiment and again at the conclusion of the experiment in late September and a mid-side wool sample was measured for fibre diameter and yield. Wool samples were clipped from a standardised 100×100 mm mid-side patch on the right side of each ewe at monthly intervals to determine changes in seasonal clean wool production and mean fibre diameter. Wool growth and plasma prolactin concentrations were measured at regular intervals and the results were plotted in FIGS. 4 and 5.
# prolactin receptor = details: cited from earlier work
# [3] = system: prolactin receptor gene expression; test: Trial 6: skin prolactin receptor gene expression in Romney or Wiltshire ewes; type: in vivo, sheep; details: Wiltshire ewes treated in April, P<0.05
# Protocol: (§2) Four groups, each comprised of seven 1-2 year old Romney or Wiltshire ewes were shorn and maintained indoors in individual pens from March until November 2002. The animals were fed to maintain a constant maternal live weight (independent of conceptus and fleece weights). The ewes were mated in March, and maintained in short days (8L:16D). Half of the ewes were cannulated and infusions of prolactin (40 mg/day) for 9 days commenced one week after mating. Blood samples and skin biopsies were collected from all ewes at intervals to monitor plasma prolactin and skin prolactin receptor gene expression respectively. The results are plotted in FIG. 11.
# [4] = system: prolactin receptor long form gene expression; test: Trial 4: skin prolactin receptor long form gene expression by real-time PCR; type: in vivo, sheep
# Protocol: (§3) The relative expression of prolactin receptor mRNA was measured using Taqman real-time PCR (Applied Biosystems). RNA was extracted from skin samples using TRIzol reagent according to manufactures protocol (Invitrogen). Total RNA was then quantified using RiboGreen reagent (Invitrogen) and all samples were standardized to a concentration of 0.5 μg/μl of total RNA. The reverse transcriptase reaction (Superscript II RT-PCR kit, Invitrogen) was used to generate single stranded cDNA from 0.5 μg of total RNA.
# (§4) The primers and probes for the long form of the prolactin receptor were designed using the Primer Express program (Applied Biosystems).
# (§5) The 18S ribosomal RNA pre-developed assay reagent (Applied Biosystems) was used as an internal control and the reactions were set up according to the manufacturers instructions. Data was analysed using the software provided by Applied Biosystems. Results on relative mRNA quantities were obtained by the standard curve method.
# (§6) Six midside skin biopsies were collected at intervals between April and June for measurement of prolactin receptor long form gene expression by real-time PCR and the results are plotted in FIG. 9.
# [5] = system: prolactin receptor gene expression; test: Trial 8: prolactin receptor gene expression in mice mammary gland; type: in vivo; details: 3-day infused group, days 7 and 14, P<0.05
# Protocol: Swiss female mice were maintained in cages at a constant temperature of 22 C., under a photoperiod regime of 14 hours light: 10 hours dark, fed a diet of formulated mouse pellets ad libitum with access to fresh tap water. At 21 days of age, subcutaneous implants releasing 250 μg/day of bromocriptine over 60 days (Cat. Number SC-231; Innovative Research of America Inc.) were inserted under anaesthetic. At the same time, the mice received a slow release 100 μl osmotic pump (Alzet Model 1007D; Alza Corporation, Palo Alto, Calif.) delivering ovine prolactin (400 μg/day) for either 3 or 7 days. Mice were sacrificed in groups of 3 at intervals before, during and after prolactin administration. They were anaesthetised using CO2 and blood sampled by heart puncture, prior to euthanasia by cervical dislocation. The blood was centrifuged and the plasma stored at −20 C. by radioimmunoassay for ovine prolactin. The mammary glands were dissected from each mouse and snap frozen in liquid nitrogen prior to assay by real-time PCR for prolactin receptor gene expression. The results are plotted in FIG. 13.
# rabbits = details: bromocriptine-treated rabbits, single injection of 3 mg of prolactin; cited from earlier work
# Romney ewes [6] = test: Trial 4: 3-, 9- or 18-day prolactin infusion, wool growth in pregnant Romney ewes; type: in vivo, sheep; details: for mean total patch weight (clean wool): 12-month trial
# Protocol: Trial 4 was conducted to compare different periods of exogenous prolactin administration on wool growth.
# Eighteen 3 year old Romney ewes were maintained indoors in individual pens under natural photoperiod for 12 months from March 2000. […] The ewes were fed to maintain a constant maternal live weight (independent of conceptus and fleece weights). A control group (ND non-pregnant) was not mated (n=6). Twelve other ewes (comprising Groups 2-4) were mated on 23 April.
# An ovine prolactin pituitary extract (1.0 mg/kg/day) was administered by intravenous infusion via a jugular cannula commencing 11 days after mating (4 May) for temporary periods of either 3 days (Group 2, n=6), 9 days (Group 3, n=3) or 18 days (Group 4, n=3).
# as §1, with “March 2001” for “late September”, “concentration” for “concentrations”, “7” for “4”, “8.” for “5.”
# [7] = system: prolactin receptor long form gene expression; test: Trial 5: skin prolactin receptor long form gene expression by real-time PCR; type: in vivo, sheep
# Protocol: as §3
# (§7) Twenty-one, mixed age, non-pregnant Romney ewes were maintained indoors in individual pens from September 2001 until February 2002. The ewes were fed to maintain a constant live weight. They were divided into 3 groups: short day controls (n=7), short day prolactin infused (n=7) and normal day controls (n=7). An ovine prolactin pituitary extract (1.0 mg/kg/day) was administered to each ewe in the short day infused group by intravenous infusion via a jugular cannula commencing on 9 October for 9 days. A second 9-day prolactin infusion was administered to the same ewes commencing on 20 November, 33 days after the end of the first infusion.
# Plasma prolactin concentrations were measured at regular intervals and ten midside skin biopsies were collected at intervals between October and December 2001 for measurement of prolactin receptor long form gene expression by real-time PCR. […]
# [8] = Trial 5: plasma prolactin after two 9-day prolactin infusions in non-pregnant Romney ewes; type: in vivo, sheep; details: intravenous 1.0 mg/kg/day for 9 days
# Protocol: as §7
# Plasma prolactin concentrations were measured at regular intervals and ten midside skin biopsies were collected at intervals between October and December 2001 for measurement of prolactin receptor long form gene expression by real-time PCR. The results are plotted in FIG. 10.
# [9] = Trial 6: plasma prolactin after 9-day prolactin infusion in pregnant Romney or Wiltshire ewes; type: in vivo, sheep; details: infusion 40 mg/day for 9 days, pregnant ewes in short days
# Protocol: as §2
# [10] = system: prolactin receptor long form gene expression; test: Trial 3: skin prolactin receptor long form gene expression by real-time PCR; type: in vivo, sheep
# Protocol: as §6, with “6. An assay for the short form of the ovine prolactin receptor was also developed, but results are not presented since only very low levels of expression were detected.” for “9.”
# as §3, §4, §5
# cows = details: infusions of exogenous bovine prolactin; cited from earlier work
# [11] = model parameter from literature
molecule,measurement,setting,value
CC(C)C[C@H]1C(=O)N2CCC[C@H]2[C@]2(O)O[C@](NC(=O)[C@@H]3C=C4c5cccc6[nH]c(Br)c(c56)C[C@H]4N(C)C3)(C(C)C)C(=O)N12 [bromocriptine],birth weight or live weight changes of lambs,Romney ewes [1],did not affect
B1,nitrogen retention,sheep,increases
same,mean clean fleece weight,"Romney ewes [2]; PRL-INF, 6-month trial, ND-lambed controls 1.23 kg, SEM ±0.13 kg, P<0.01",1.63 kg
same,increase in mean fibre diameter,"Romney ewes [2]; PRL-INF, by September, P=0.05",2 μm
same,decline in clean wool growth rate,"Romney ewes [2]; PRL-INF, intravenous infusion 18 days, n=2, May and throughout pregnancy",arrested in May and remained high
same,September clean wool growth rate relative to untreated ND-lambed ewes,"Romney ewes [2]; PRL-INF, intravenous infusion, P<0.001",approximately twice
same,mean fibre diameter relative to ND-lambed controls,"Romney ewes [2]; PRL-INJ, P<0.10",appeared to be lower
same,September clean wool growth vs untreated ND-lambed ewes,"Romney ewes [2]; PRL-INJ, daily subcutaneous injection, P<0.05",lower
same,decline in clean wool growth rate compared to pregnant controls,Romney ewes [2]; daily subcutaneous injections 0.8 mg/kg/day (PRL-INJ),no initial effect
same,"α, rate of formation of dimer complex","prolactin receptor; model parameter from literature [Gertler et al., 1996]",48000 M⁻¹ s⁻¹
same,"d12, dissociation rate of hormone-receptor complex",prolactin receptor; [11],4717.4 day⁻¹
same,"d, dissociation rate of hormone-receptor complex",prolactin receptor; [11],12.96 day⁻¹
same,"α1, rate of formation of trimer complex",prolactin receptor; [11],35000 M⁻¹ s⁻¹
same,"γ, clearance rate constant of plasma prolactin",prolactin receptor; [11],35.6 day⁻¹
same,prolactin receptor gene expression in September vs non-treated Wiltshire ewes,[3],increase
same,prolactin receptor gene expression following commencement of infusions,[4]; 3-day infusion group,all groups except the 3-day group
same,prolactin receptor gene expression following commencement of infusions,[4]; 9-day and 18-day infusion groups,dropped significantly
same,prolactin receptor gene expression following termination of infusions,"[4]; all infused groups, not statistically significant",rose
same,prolactin receptor gene expression vs control group and 7-day infused group,[5],elevated
same,recovery in milk yield,rabbits,accelerated
same,mean total patch weight (clean wool),Romney ewes [6]; 3-day infusion,0.74 g
same,clean patch wool growth vs 3-day and 18-day infused groups,"Romney ewes [6]; 9-day infusion 1.0 mg/kg/day, during May",higher wool growth
same,mean total patch weight (clean wool),Romney ewes [6]; 9-day infusion,0.91 g
same,mean fibre diameter difference vs other infused groups,"Romney ewes [6]; 9-day infusion, July",approximately 3 μm
same,wool growth rate vs other infused groups,"Romney ewes [6]; 9-day infusion, July, P<0.01, persisted until November",higher than either of the other infused groups
same,mean fibre diameter vs 3-day infused group,"Romney ewes [6]; 9-day infusion, June, P<0.01",significantly higher
same,mean total patch weight (clean wool),Romney ewes [6]; 18-day infusion,0.66 g
same,prolactin receptor gene expression,"[7]; first 9-day infusion, P<0.01",elevated
same,prolactin receptor gene expression,"[7]; second 9-day infusion, P<0.02",elevated
same,plasma prolactin levels on termination of the infusions,[8],fell rapidly to baselines levels
same,plasma prolactin levels during infusion,[8]; short day ewes,approximately 500 ng/ml
same,plasma prolactin levels during prolactin administration,[9],approximately 500 ng/ml
same,"prolactin receptor gene expression, differences between remaining treatment groups","[10]; PRL-INJ (injected) among remaining groups, over the trial",no significant differences
same,duration of high level of receptor expression vs untreated ewes,"[10]; infused ewes, April to June, P<0.05",sustained for two months
same,prolactin receptor gene expression compared to other treatment groups,"[10]; infused ewes, during and after the 18 day infusion, P<0.01",significantly elevated
B2,bromocriptine-induced reductions in milk yield,cows,can prevent
